Reference: the DeepSol protein solubility set

Assay: soluble on expression in E. coli; label from the status in PepcDB or PDB records

**Q.** For “GNSKKHNLILIGAPGSGKGTQCEFIKKEYGLAHLSTGDMLREAIKNGTKIGLEAKSIIESGNFVGDEIVLGLVKEKFDLGVCVNGFVLDGFPRTIPQAEGLAKILSEIGDSLTSVIYFEIDDSEIIERISGRCTHPASGRIYHVKYNPPKQPGIDDVTGEPLVWRDDDNAEAVKVRLDVFHKQTAPLVKFYEDLGILKRVNAKLPPKEVTEQIKKIL”, which “soluble on expression in E. coli” value is on record?
**A.** soluble

**Q.** With “GNSKSGALSKEILEELQLNTKFTEEELSSWYQSFLKECPSGRITRQEFQTIYSKFFPEADPKAYAQHVFRSFDANSDGTLDFKEYVIALHMTSAGKTNQKLEWAFSLYDVDGNGTISKNEVLEIVTAIFKMISPEDTKHLPEDENTPEKRAEKIWGFFGKKDDDKLTEKEFIEGTLANKEILRLIQFEPQKVKEKLKEKKL” as the sequence, how does the “soluble on expression in E. coli” value read?
**A.** soluble

**Q.** Which “soluble on expression in E. coli” value does the source give for “GPGSMAAMASRALISSPSHLLQKFDSCRTIFMCCDIQEKLRNRIPNFQAAVDVSNSMATIHNTLTPKHSTFVVTEQYPKGVGHVAKDITLPEGTPVIEKLQPSMLVPEMMPYIDGDAARGILPVQQAVLWGHETHVCVLQTADELLSRNIRVAVLVDGCASQQQLDHDVAIQEMAGWENLTLTTTISVLLQLSRGDRWIRGALMKVVKPKWADPSRFPSLPADGERPKA” here?
**A.** soluble

**Q.** With “GPGSMAKHYKAIFAMSYEAELYAHLQASQRFNAGADAAVVLHADSDEAMRRHLGISIDPINGTNCCVGGVWQAPMTLVGIALDGVPIAGVMNRIFDYPLTCTYGPAATEPQEKACVPGLAVVLNTPTPASPFVVFDGGLVPAPGQMEQQLECTCETPLAVCRSSTTKEVFLQRLLTQLEPCNAVYSRGAGYKQYHLLKKMLTGRHVAHEAITPADIFVCPPGTIEKWDCCVVHAFLYALGGEIFDQNGVPIRYPLVGTYGAATTSLSEIAALTDGLVAVTPYAMHEVARRLGWTLTLAP” as the sequence, how does the “soluble on expression in E. coli” value read?
**A.** not soluble

**Q.** Which “soluble on expression in E. coli” value does the source give for “GPGSMALVHTTYPQCLSLVEADTAEAEVQQALEDGANTLYFSHHFNYTDVPPSIAALREQLEVLHIDNNYPFTTISPRVTALTNLRWLNASYCSLRSVDSSISRLSKLERLTLNNNMLTWLPLDVWQLKALEELHIDNNQLNVLPGCLLFLPRLRVLTLENNPLYTHEEVNGAAAATYIPVQCSVDCSACCIRSRNYKVFVTFHTIVGHSDVPFVHVVCSDECAVHVRSRLEAYDRAHANQP” here?
**A.** soluble

**Q.** Which “soluble on expression in E. coli” value does the source give for “GPGSMAMRDVIGDPDLLLRKTPANPKYEHVKPVVETGMTAELARFMKNTGAALYRVSGEPFMRIRTRLIGDFVQKQQSQSGEIKDGGFAHPMDEYRAPDTQLPKEYLILDVRSEEEYAACHIKGALHYPKRRMVHAINPLLPEMFNFKNKENKLIVLYDLEEEMTIAQGIGQNVFEKGIDNLAVMTGGLREFVQDYADCIVGESPVPIVPRDTRLLKRAEAVSAARSETQRSAFSHKPKSLSNSLAKPRPR” here?
**A.** soluble

**Q.** With “GPGSMDRGYPRRREGGASFGGGGFGGVGGFSGGSGGPPAGGPRRRFRSDFDPEEYAPRRKLHGQRPVDFYSPAIRHVLTRLVPRSTPYSYHVAPHEYYTKDLVTASVTNYNASTALCTQWVNTSYHPDSKGGRIRTPLYALQWSPSGRRLLCSTGRGEFLLFNGQSFGVEVKTVAHEDNRPCRAIAWGRRHDLILSGDDAGKLKMWMPNFVFMSEVDTSHRAVREISWAPLELKFCTAGQDGSAKVWDTNTVGAHTATAGASDGNQAVLEEVKLEGHGGDVTTAHWHPYRALIATGSQDTQCRLWDPRTASRGSIAALHGHSQALTCVRWHPDGRTLLSASKDGTVKLWDIRKTQPEVKRFTGHTDAVDKVDWHPTVSDLFASTGADGSVMYWMVAEGDGTMTHGVEEVVHDAAMIEAAHEKFRDKPNPVHCVAWSPLGNILASSGHEVKYWTRNKPGALEEKERGVESDILDEQGHVMV” as the sequence, how does the “soluble on expression in E. coli” value read?
**A.** not soluble

**Q.** Which “soluble on expression in E. coli” value does the source give for “GPGSMEEQDQRKPNGGNNGLPVPPSTTETGQGPLQDILGRTPNCQYVKKRLLGQGSFGSAWRVEESATGNVFAAKVMDLNNMSEKDRGFVTNEVKCLSRCCNPHVVRCENAIEREGQLLIVMEYADGGDLYKQIKARVREMKFFREHEVVFIFLQLCLALDHIHSNKMMHRDLKTANILLTTTGLVKLGDFGFSRQYEDSLSNAVGSTFCGTPYYLSPELWHRQPYSKKSEMWALGVVLYEVMALRRPFTGKNMDELITNICHGRCSDLPSSYSASLRDVCNRLLSVDPNTRPTIHELFHEPFIRSNLETLKRSVEKHNRIPADVREAIARCITQSLNTEEPPAHLEEPEPLIGTVKRHTALRGWQKCLLSFDEKQISIRDPSGVDPEEVVPVATLTSVCPIDVMMAGEEFVFAMKNQAGKAFWFMAPSQRAYEQWLTTLQEAAP” here?
**A.** soluble
